The values that follow come from the Immune Epitope Database (IEDB).

What is called Kd is the constant that tells how readily two partners part at equilibrium.

Where only a bound is given, the exact number is not on record here.

For assay [1], the target named is HLA-B*15:01. Kind of assay: IEDB peptide-MHC binding, purified MHC/competitive/radioactivity; filed as Kd, often an IC50 or EC50 that approximates it; ≥ and ≤ were set here for values at or beyond the usual limits of such assays.
For assay [2], the target named is HLA-B*07:02. Described as above.
Assay [3] addresses HLA-B*35:01. Described as above.
Assay [4] addresses HLA-B*51:01. The description is as above.
Assay [5] concerns the target HLA-B*40:01. The description is as above.
The target in assay [6] is HLA-B*15:01. In words: IEDB peptide-MHC binding, purified MHC/competitive/fluorescence; filed as Kd, often an IC50 or EC50 that approximates it; ≥ and ≤ were set here for values at or beyond the usual limits of such assays.
In assay [7] the target is HLA-A*02:01. Kind of assay: IEDB peptide-MHC binding, purified MHC/competitive/radioactivity; filed as Kd, often an IC50 or EC50 that approximates it; ≥ and ≤ were set here for values at or beyond the usual limits of such assays.
The target in assay [8] is HLA-A*02:01. Kind of assay: IEDB peptide-MHC binding, purified MHC/competitive/fluorescence; filed as Kd, often an IC50 or EC50 that approximates it; ≥ and ≤ were set here for values at or beyond the usual limits of such assays. The conditions noted are these: source organism: Vaccinia virus.
Assay [9] deals with HLA-A*26:01. In words: IEDB peptide-MHC binding, purified MHC/competitive/radioactivity; filed as Kd, often an IC50 or EC50 that approximates it; ≥ and ≤ were set here for values at or beyond the usual limits of such assays.
For assay [10], the target named is HLA-A*29:02. Described as above.
Assay [11] deals with HLA-A*30:02. The assay is described as above.
Assay [12] addresses HLA-A*01:01. The assay is described as above.
The target of assay [13] is HLA-A*30:01. Described as above.
In assay [14] the target is HLA-A*24:02. The assay is described as above.
Assay [15] deals with HLA-A*23:01. The description is as above.
Assay [16] deals with HLA-A*32:01. The description is as above.
Assay [17] deals with HLA-A*02:02. The assay is described as above.
Assay [18] concerns the target HLA-A*02:03. The description is as above.
For assay [19], the target named is HLA-A*02:06. The assay is described as above.
The target of assay [20] is HLA-B*53:01. The description is as above. The following applies: source organism: Dengue virus 3 Martinique/1243/1999.
[21] abbreviates: source organism: Dengue virus 1 Brazil/97-11/1997.
[22] abbreviates: source organism: Mammarenavirus guanaritoense.
Where [23] appears, read: source organism: Vaccinia virus WR.
Setting [24] is: source organism: Dengue virus 2 Jamaica/1409/1983.
[25] abbreviates: source organism: SARS coronavirus Tor2.
Setting [26] is: source organism: Vaccinia virus Copenhagen.
The mark [27] stands for this setting: source organism: Dengue virus 3 Martinique/1243/1999.
[28] abbreviates: source organism: Mammarenavirus juninense.

As to SNAAIGAVF, the Kd in assay [1] (setting [21]) stood at 77.8 nM.
In the case of MPVTVASAAQ, the Kd in [2] (setting [21]) is 446 nM; in [3] (setting [21]) it was 391 nM; in assay [4] (setting [21]), not below 69600 nM.
As to VEAGRTLRVL, in assay [5] (source organism: Dengue virus 2 Peru/IQT2913/1996), the equilibrium dissociation constant (Kd) was found to be 12.1 nM.
On to VEETNMITL, for which the Kd in assay [5] (source organism: Dengue virus 4 Dominica/814669/1981) is 27.1 nM.
Regarding FSPRLCRPF, in assay [6] (source organism: Escherichia coli 536), the dissociation constant Kd stood at 325 nM.
In the case of FLETDAGRV, in [7] (source organism: Variola virus), the Kd is 100 nM.
Consider LVEKVLKIL, for which the Kd in assay [8] amounted to 992 nM.
Consider HTNFESFTV, for which the dissociation constant (Kd) is not below 36600 nM in [9] (setting [22]); 11200 nM in [10] (setting [22]); 971 nM in assay [11] (setting [22]); 440 nM in assay [12] (setting [22]); 182 nM in [13] (setting [22]); not below 77500 nM in assay [14] (setting [22]). The dissociation constant (Kd) in assay [15] (setting [22]) is not below 48200 nM; in assay [16] (setting [22]) it was 682 nM.
On to QNHKKSAHF, for which the Kd in assay [1] (setting [23]) turned out to be 412 nM.
Take RLNALGKSEF: the Kd in assay [1] (setting [24]) was 17.2 nM.
With TMADLVYAL, the Kd in assay [9] (setting [25]) was not below 77900 nM; in assay [10] (setting [25]) it was not below 23000 nM; in assay [17] (setting [25]) it was 0.183 nM; in assay [11] (setting [25]) it was not below 93800 nM; in assay [12] (setting [25]), not below 62500 nM; in [18] (setting [25]) it was 16.2 nM. For the same sequence, the results for the dissociation constant Kd in [14] (setting [25]), in assay [15] (setting [25]) and in assay [19] (setting [25]) were 10100 nM, 6580 nM and 46.5 nM, respectively.
As for LIIICCVSG, in assay [1] (setting [26]), the dissociation constant Kd turned out to be 403 nM.
Take AETQHGTVLV: the Kd in [5] (setting [21]) worked out at 98.4 nM.
For the sequence LPVCQSSSM, the equilibrium dissociation constant (Kd) in assay [2] (setting [27]) turned out to be 10.5 nM; in [3] (setting [27]), 12.6 nM; in assay [4] (setting [27]) it was 2740 nM; in [20], 1010 nM.
On to YVFFEIIHF, for which the dissociation constant (Kd) in assay [1] (setting [26]) turned out to be 0.692 nM.
GEKSRCYSIY: the equilibrium dissociation constant (Kd) in assay [9] (setting [28]) is 18000 nM; in [10] (setting [28]), not below 51800 nM; in [11] (setting [28]), 3160 nM; in [12] (setting [28]), 13900 nM; in assay [13] (setting [28]), 2190 nM; in [14] (setting [28]), not below 70300 nM. Also, the Kd was not below 70000 nM in assay [15] (setting [28]) and not below 69900 nM in assay [16] (setting [28]).
With ALCKVTVPT, the equilibrium dissociation constant (Kd) was determined as 110 nM in [17] (setting [23]), 130 nM in [18] (setting [23]), 31 nM in assay [7] (setting [23]) and 210 nM in assay [19] (setting [23]).
Take AQGKPTLDF: the Kd in assay [1] (source organism: Dengue virus 4 Philippines/H241/1956) was 3.09 nM.
Take RVIDPRRCM: the equilibrium dissociation constant (Kd) in assay [2] (setting [24]) turned out to be 1150 nM.
Regarding LEFEALGFLN, the dissociation constant Kd in assay [5] (source organism: Murray valley encephalitis virus (strain MVE-1-51)) was found to be 144 nM.
The sequence TQWCSRSVY showed a Kd in assay [6] (source organism: Escherichia coli 101-1) of 84.3 nM.
On to RMFHFFEHE, for which, in assay [1] (setting [23]), the Kd came out at 66.9 nM.
Regarding LINNGKCTF, the Kd in [1] (setting [23]) was determined as 61.9 nM.
On to MECSPRTGL, for which the Kd in [5] (setting [24]) turned out to be 153 nM.
FIASKGVKLV: the Kd in [7] (source organism: Homo sapiens) worked out at 37 nM.
